Sequences and labels used below:
B4: Regulator of Ty1 Transposition 105 (Rtt105) (natural protein, S. cerevisiae, UniProt P40063 1-208, looked up)
chain: MYSNHNLNSDDCCFDWNEEKAAELQRTGVSFDRSLTPQSLRTSTRRLSEENKQQSGTMHIDTSPSVVSDIISSRRDRSQDFFGPHSSSPIAPSERQRADQRSRLESMRLTRRRDKMTKVRGGLEKMEEMIMQGEHLREMQRLKQEAQKNALPSDMAEYMEWQNNEDLEDDELLAFIEKQETYKNELEHFLNNANKNVYENNSYPNSHT
notes: Rtt105, S. cerevisiae, a 24 kDa protein; RSF-Duet1 plasmid; also called Rtt105^WT; unlabeled Rtt105

Data set [1] addresses T1, RPA (RPA70/RPA32/RPA14) (Saccharomyces cerevisiae, UniProt P22336;P26754;P26755 1-621;1-273;1-122). The experiment in a line: competition; facilitated exchange: excess free RPA displaces prebound labeled RPA; EMSA: 25 mM Tris-Cl pH 7.5, 200 mM NaCl, 5 mM MgCl2, 5% glycerol, 0.05% Tween-20, 25 C; anisotropy/FRET: 30 mM HEPES pH 7.8, 100 mM KCl, 6% glycerol, 5 mM MgCl2, 1 mM bME, 23 C (stopped flow 25 C). The conditions noted are these: protein: recombinant; copies: 1;1;1. (Mobility shift assays separate free from complexed probe on a gel.)
Target sequence in this assay (P26754 whole entry, chain 2 of 2): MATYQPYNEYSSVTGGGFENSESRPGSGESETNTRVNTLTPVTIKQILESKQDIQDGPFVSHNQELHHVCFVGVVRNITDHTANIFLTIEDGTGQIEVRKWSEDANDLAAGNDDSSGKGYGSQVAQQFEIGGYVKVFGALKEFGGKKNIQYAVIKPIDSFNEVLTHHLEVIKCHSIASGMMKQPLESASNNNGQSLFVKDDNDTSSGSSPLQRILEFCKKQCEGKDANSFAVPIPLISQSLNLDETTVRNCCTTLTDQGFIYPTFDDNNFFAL
Target sequence in this assay (P26755 whole entry, chain 3 of 2): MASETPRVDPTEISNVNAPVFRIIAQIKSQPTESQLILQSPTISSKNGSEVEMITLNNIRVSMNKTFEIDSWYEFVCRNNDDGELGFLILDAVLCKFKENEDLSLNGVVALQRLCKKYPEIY

The target in data set [2] is T2, Replication Protein A (RPA), S. cerevisiae heterotrimer of RPA70, RPA32 and RPA14 (S. cerevisiae, UniProt P22336 1-621; P26754 1-273; P26755 1-122).
T2 construct: RPA70 (Rfa1), large subunit of S. cerevisiae RPA; holds OB-F, DBD-A, DBD-B and DBD-C; RPA32 (Rfa2), middle subunit of S. cerevisiae RPA; holds DBD-D and the winged-helix domain; RPA14 (Rfa3), small subunit of S. cerevisiae RPA; holds OB-E; also called yeast RPA; unlabeled RPA; copies: + +
The experiment in a line: AUC; sedimentation velocity as a14; Rtt105^Cy5, RPA and Rad52 mixed in equimolar concentrations, no ssDNA; 280 nm and 650 nm. The note with it: both partners purified.

Data set [3] has as its target RPA-DBD-A^Cy3 (S. cerevisiae) (UniProt P22336). The experiment in a line: FRET or BRET; stopped-flow FRET, Cy3 excited at 535 nm, Cy5 emission; 100 nM each of RPA^Cy3 and Rtt105^Cy5; 25 °C; RPA reaction buffer; no DNA. (Bioluminescence resonance energy transfer reports proximity on the nanometre scale.)
Data set [4] concerns the target RPA-DBD-D^Cy3 (S. cerevisiae) (UniProt P22336). The data set is described as above.
Data set [5] addresses RPA-DBD-D^MB543 (S. cerevisiae) (UniProt P22336). As to the kind of experiment: optical tweezers with confocal fluorescence (C-trap); Rtt105^Cy5-RPA premixed 1:1, incubated with stretched lambda ssDNA, then moved to a buffer channel; 30 mM HEPES pH 7.8, 100 mM KCl, 6% glycerol, 5 mM MgCl2.
Data set [6] has as its target B4. The experiment in a line: other fluorescence titration; MB543 fluorescence quenching; 200 nM fluorescent RPA or F-A-B in the cuvette, unlabeled Rtt105 added stepwise; 23 °C; 30 mM HEPES pH 7.8, 100 mM KCl, 6% glycerol, 5 mM MgCl2, 1 mM βME; quadratic fit, apparent KD. The conditions noted are these: both partners purified.
Data set [7] deals with T2, Replication Protein A (RPA), S. …. The experiment in a line: cross-linking; BS3 (5 mM) cross-linking of RPA with Rtt105 in 30 mM HEPES, 200 mM KCl, pH 7.8; SDS-PAGE shift and mass spectrometry of cross-linked peptides (XL-MS). The note with it: both partners purified.
In data set [8] the target is RPA-DBD-A^MB543 (S. cerevisiae) (UniProt P22336). As to the kind of experiment: other fluorescence titration; MB543 fluorescence quenching; 200 nM fluorescent RPA or F-A-B in the cuvette, unlabeled Rtt105 added stepwise; 23 °C; 30 mM HEPES pH 7.8, 100 mM KCl, 6% glycerol, 5 mM MgCl2, 1 mM βME; quadratic fit, apparent KD.
Data set [9] has as its target RPA-DBD-A-Cy5 (Saccharomyces cerevisiae, UniProt P22336;P26754;P26755 1-621;1-273;1-122). As to the kind of experiment: stopped-flow FRET; no Rtt105; kobs1 18.2, kobs2 2.7 s-1; EMSA: 25 mM Tris-Cl pH 7.5, 200 mM NaCl, 5 mM MgCl2, 5% glycerol, 0.05% Tween-20, 25 C; anisotropy/FRET: 30 mM HEPES pH 7.8, 100 mM KCl, 6% glycerol, 5 mM MgCl2, 1 mM bME, 23 C (stopped flow 25 C). The conditions noted are these: protein: recombinant; tags: Cy5 on DBD-A via 4AZP; copies: 1;1;1; label: 5'-Cy3.

Data set [10] addresses RPA-DBD-A-Cy5;Rtt105 (Saccharomyces cerevisiae;Saccharomyces …, UniProt P22336;P26754;P26755;P40063 1-621;1-273;1-122;1-208, |). The experiment in a line: stopped-flow FRET; with Rtt105; kobs1 15, kobs2 1.9 s-1; EMSA: 25 mM Tris-Cl pH 7.5, 200 mM NaCl, 5 mM MgCl2, 5% glycerol, 0.05% Tween-20, 25 C; anisotropy/FRET: 30 mM HEPES pH 7.8, 100 mM KCl, 6% glycerol, 5 mM MgCl2, 1 mM bME, 23 C (stopped flow 25 C). The conditions noted are these: protein: recombinant;recombinant; tags: Cy5 on DBD-A via 4AZP;; copies: 1;1;1;1; label: 5'-Cy3.

Data set [11] addresses RPA-DBD-D-Cy5 (Saccharomyces cerevisiae, UniProt P22336;P26754;P26755 1-621;1-273;1-122). As to the kind of experiment: stopped-flow FRET; no Rtt105; kobs1 100.3, kobs2 16, kobs3 1.4 s-1; EMSA: 25 mM Tris-Cl pH 7.5, 200 mM NaCl, 5 mM MgCl2, 5% glycerol, 0.05% Tween-20, 25 C; anisotropy/FRET: 30 mM HEPES pH 7.8, 100 mM KCl, 6% glycerol, 5 mM MgCl2, 1 mM bME, 23 C (stopped flow 25 C). The conditions noted are these: protein: recombinant; tags: Cy5 on DBD-D via 4AZP; copies: 1;1;1; label: 3'-Cy3.

The target of data set [12] is RPA-DBD-D-Cy5;Rtt105 (Saccharomyces cerevisiae;Saccharomyces …, UniProt P22336;P26754;P26755;P40063 1-621;1-273;1-122;1-208, |). As to the kind of experiment: stopped-flow FRET; with Rtt105; kobs1 0.5, kobs2 48, kobs3 3.6 s-1; EMSA: 25 mM Tris-Cl pH 7.5, 200 mM NaCl, 5 mM MgCl2, 5% glycerol, 0.05% Tween-20, 25 C; anisotropy/FRET: 30 mM HEPES pH 7.8, 100 mM KCl, 6% glycerol, 5 mM MgCl2, 1 mM bME, 23 C (stopped flow 25 C). The conditions noted are these: protein: recombinant;recombinant; tags: Cy5 on DBD-D via 4AZP;; copies: 1;1;1;1; label: 3'-Cy3.

Data set [13] has as its target hRPA (human, UniProt P27694;P15927;P35244 1-616;1-270;1-121). As to the kind of experiment: fluorescence anisotropy; 20 nM DNA; stoichiometric; no RPAIN; EMSA: 25 mM Tris-Cl pH 7.5, 200 mM NaCl, 5 mM MgCl2, 5% glycerol, 0.05% Tween-20, 25 C; anisotropy/FRET: 30 mM HEPES pH 7.8, 100 mM KCl, 6% glycerol, 5 mM MgCl2, 1 mM bME, 23 C (stopped flow 25 C). The conditions noted are these: protein: recombinant; copies: 1;1;1; label: 5'-FAM.

The target in data set [14] is hRPA;RPAIN (human;human, UniProt P27694;P15927;P35244;Q86UA6 1-616;1-270;1-121;1-219, |). The experiment in a line: fluorescence anisotropy; 20 nM DNA; stoichiometric; hRPA:RPAIN 1:2; EMSA: 25 mM Tris-Cl pH 7.5, 200 mM NaCl, 5 mM MgCl2, 5% glycerol, 0.05% Tween-20, 25 C; anisotropy/FRET: 30 mM HEPES pH 7.8, 100 mM KCl, 6% glycerol, 5 mM MgCl2, 1 mM bME, 23 C (stopped flow 25 C). The note with it: protein: recombinant;recombinant; tags: ;N-terminal SUMO tag removed; copies: 1;1;1;2; label: 5'-FAM. On the technique in general: In fluorescence polarisation assays a small probe gives low polarisation when free and higher when bound to something large.

In data set [15] the target is T1, RPA (RPA70/RPA32/RPA14). The experiment in a line: EMSA; no Rtt105; 5 mM MgCl2; stoichiometric, apparent Kd; EMSA: 25 mM Tris-Cl pH 7.5, 200 mM NaCl, 5 mM MgCl2, 5% glycerol, 0.05% Tween-20, 25 C; anisotropy/FRET: 30 mM HEPES pH 7.8, 100 mM KCl, 6% glycerol, 5 mM MgCl2, 1 mM bME, 23 C (stopped flow 25 C). The note with it: protein: recombinant; copies: 1;1;1; label: 5'-Cy5.
Target sequence in this assay (P22336 whole entry, chain 1 of 3): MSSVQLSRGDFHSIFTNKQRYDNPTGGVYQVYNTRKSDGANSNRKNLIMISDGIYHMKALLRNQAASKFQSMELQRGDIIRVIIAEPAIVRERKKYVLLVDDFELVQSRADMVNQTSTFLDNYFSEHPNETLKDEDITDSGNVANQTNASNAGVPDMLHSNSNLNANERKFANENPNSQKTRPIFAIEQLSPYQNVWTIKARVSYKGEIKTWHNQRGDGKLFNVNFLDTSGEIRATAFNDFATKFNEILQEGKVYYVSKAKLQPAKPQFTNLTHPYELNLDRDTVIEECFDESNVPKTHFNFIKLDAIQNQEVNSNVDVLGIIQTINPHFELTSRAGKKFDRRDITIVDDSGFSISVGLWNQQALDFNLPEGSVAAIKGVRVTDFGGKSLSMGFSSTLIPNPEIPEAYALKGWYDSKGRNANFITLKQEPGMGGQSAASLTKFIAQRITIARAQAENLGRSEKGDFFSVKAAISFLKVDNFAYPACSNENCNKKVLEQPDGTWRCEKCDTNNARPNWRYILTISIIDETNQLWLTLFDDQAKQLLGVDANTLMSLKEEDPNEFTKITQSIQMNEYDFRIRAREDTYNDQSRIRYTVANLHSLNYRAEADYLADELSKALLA
Target sequence in this assay (P26754 whole entry, chain 2 of 3): as the sequence (P26754 whole entry, chain 2 of 2) above
Target sequence in this assay (P26755 whole entry, chain 3 of 3): as the sequence (P26755 whole entry, chain 3 of 2) above

The target in data set [16] is RPA (RPA70/RPA32/RPA14);Rtt105 (Saccharomyces cerevisiae;Saccharomyces …, UniProt P22336;P26754;P26755;P40063 1-621;1-273;1-122;1-208, |). As to the kind of experiment: EMSA; Rtt105 premixed 1:1; 5 mM MgCl2; stoichiometric, apparent Kd; EMSA: 25 mM Tris-Cl pH 7.5, 200 mM NaCl, 5 mM MgCl2, 5% glycerol, 0.05% Tween-20, 25 C; anisotropy/FRET: 30 mM HEPES pH 7.8, 100 mM KCl, 6% glycerol, 5 mM MgCl2, 1 mM bME, 23 C (stopped flow 25 C). The note with it: protein: recombinant;recombinant; tags: ;; copies: 1;1;1;1; label: 5'-Cy5.
Chain of RPA (RPA70/RPA32/RPA14);Rtt105 (P22336 whole entry, chain 1 of 4, one chain of several): as the sequence (P22336 whole entry, chain 1 of 3) above
Chain of RPA (RPA70/RPA32/RPA14);Rtt105 (P26754 whole entry, chain 2 of 4, one chain of several): as the sequence (P26754 whole entry, chain 2 of 2) above
Chain of RPA (RPA70/RPA32/RPA14);Rtt105 (P26755 whole entry, chain 3 of 4, one chain of several): as the sequence (P26755 whole entry, chain 3 of 2) above

T2 sequence (P26754 whole entry, chain 2 of 2, the tested form may be a part): as the sequence (P26754 whole entry, chain 2 of 2) above
T2 sequence (P26755 whole entry, chain 3 of 2, the tested form may be a part): as the sequence (P26755 whole entry, chain 3 of 2) above
Chain of hRPA (P27694 whole entry, chain 1 of 3): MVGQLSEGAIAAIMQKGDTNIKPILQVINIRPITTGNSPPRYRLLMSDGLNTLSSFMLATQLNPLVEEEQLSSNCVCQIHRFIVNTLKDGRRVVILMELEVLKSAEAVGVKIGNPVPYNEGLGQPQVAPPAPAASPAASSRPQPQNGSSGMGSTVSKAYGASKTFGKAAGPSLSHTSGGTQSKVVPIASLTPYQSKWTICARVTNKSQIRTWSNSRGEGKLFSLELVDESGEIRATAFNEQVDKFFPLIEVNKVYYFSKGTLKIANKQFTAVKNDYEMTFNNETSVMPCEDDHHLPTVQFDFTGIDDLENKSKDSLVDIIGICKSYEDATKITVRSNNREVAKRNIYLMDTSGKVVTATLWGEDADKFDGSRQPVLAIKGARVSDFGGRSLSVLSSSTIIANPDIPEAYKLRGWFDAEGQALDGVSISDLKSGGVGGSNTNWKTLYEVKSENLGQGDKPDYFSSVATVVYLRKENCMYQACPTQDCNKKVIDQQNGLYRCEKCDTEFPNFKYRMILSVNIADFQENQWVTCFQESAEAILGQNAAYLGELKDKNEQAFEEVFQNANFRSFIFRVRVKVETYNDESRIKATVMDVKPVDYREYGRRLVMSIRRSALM
Chain of hRPA (P15927 whole entry, chain 2 of 3): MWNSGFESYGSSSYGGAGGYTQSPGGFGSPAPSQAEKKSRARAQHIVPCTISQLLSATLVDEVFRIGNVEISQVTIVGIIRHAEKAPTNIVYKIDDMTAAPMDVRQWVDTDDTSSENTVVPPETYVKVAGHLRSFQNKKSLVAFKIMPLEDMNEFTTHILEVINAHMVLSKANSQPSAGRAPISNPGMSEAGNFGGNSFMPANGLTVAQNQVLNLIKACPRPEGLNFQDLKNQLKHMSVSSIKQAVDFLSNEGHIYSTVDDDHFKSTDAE
Chain of hRPA (P35244 whole entry, chain 3 of 3): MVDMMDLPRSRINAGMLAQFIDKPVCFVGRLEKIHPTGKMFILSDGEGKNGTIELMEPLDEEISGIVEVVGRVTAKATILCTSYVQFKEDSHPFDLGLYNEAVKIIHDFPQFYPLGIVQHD
Chain of hRPA;RPAIN (P27694 whole entry, chain 1 of 4): as the sequence (P27694 whole entry, chain 1 of 3) above
Chain of hRPA;RPAIN (P15927 whole entry, chain 2 of 4): as the sequence (P15927 whole entry, chain 2 of 3) above
Chain of hRPA;RPAIN (P35244 whole entry, chain 3 of 4): as the sequence (P35244 whole entry, chain 3 of 3) above
Chain of hRPA;RPAIN (Q86UA6 whole entry, chain 4 of 4): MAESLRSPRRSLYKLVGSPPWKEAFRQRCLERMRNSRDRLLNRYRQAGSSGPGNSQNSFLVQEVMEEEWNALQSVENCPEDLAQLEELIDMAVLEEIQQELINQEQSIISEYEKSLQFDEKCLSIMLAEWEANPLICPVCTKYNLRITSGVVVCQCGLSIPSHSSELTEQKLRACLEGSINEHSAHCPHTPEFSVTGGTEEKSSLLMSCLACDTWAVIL
Chain of RPA-DBD-A-Cy5;Rtt105 (P26754 whole entry, chain 2 of 2): as the sequence (P26754 whole entry, chain 2 of 2) above
Chain of RPA-DBD-A-Cy5;Rtt105 (P26755 whole entry, chain 3 of 2): as the sequence (P26755 whole entry, chain 3 of 2) above
Chain of RPA-DBD-D-Cy5;Rtt105 (P26754 whole entry, chain 2 of 2): as the sequence (P26754 whole entry, chain 2 of 2) above
Chain of RPA-DBD-D-Cy5;Rtt105 (P26755 whole entry, chain 3 of 2): as the sequence (P26755 whole entry, chain 3 of 2) above
Chain of RPA-DBD-D-Cy5 (P26754 whole entry, chain 2 of 2): as the sequence (P26754 whole entry, chain 2 of 2) above
Chain of RPA-DBD-D-Cy5 (P26755 whole entry, chain 3 of 2): as the sequence (P26755 whole entry, chain 3 of 2) above
Chain of RPA-DBD-A-Cy5 (P26754 whole entry, chain 2 of 2): as the sequence (P26754 whole entry, chain 2 of 2) above
Chain of RPA-DBD-A-Cy5 (P26755 whole entry, chain 3 of 2): as the sequence (P26755 whole entry, chain 3 of 2) above

B1: (dT)97 (ssDNA)
DNA: TTTTTTTTTTTTTTTTTTTTTTTTTTTTTTTTTTTTTTTTTTTTTTTTTTTTTTTTTTTTTTTTTTTTTTTTTTTTTTTTTTTTTTTTTTTTTTTTT
Consider B1, for which the binding result in data set [1] is “binds”.

B2: Rtt105^Cy5 (Rtt105^C13S labeled with Cy5 on Cys-12) (natural protein, S. cerevisiae, UniProt P40063 1-208, looked up)
chain: MYSNHNLNSDDCSFDWNEEKAAELQRTGVSFDRSLTPQSLRTSTRRLSEENKQQSGTMHIDTSPSVVSDIISSRRDRSQDFFGPHSSSPIAPSERQRADQRSRLESMRLTRRRDKMTKVRGGLEKMEEMIMQGEHLREMQRLKQEAQKNALPSDMAEYMEWQNNEDLEDDELLAFIEKQETYKNELEHFLNNANKNVYENNSYPNSHT
modifications: Cy5 (maleimide chemistry) on Cys-12
notes: Rtt105, S. cerevisiae, single-Cys version; also called Cy5-labeled Rtt105; fluorescent Rtt105; source: E. coli, purified similar to the wild-type protein, labeled with Cy5-maleimide
With B2, in data set [2], the binding result was “binds”. For the same molecule, the kobs (single-step model) in data set [3] was 0.2 s⁻¹. Further, in data set [4], the kobs,1 (two-step model) worked out at 3.5 s⁻¹ and the kobs,2 (two-step model) is 0.2 s⁻¹. The molecule also yielded a t1/2 of dissociation from RPA on ssDNA in data set [5] of 5 s.

B3: F-A-B-DBD-A^MB543 (domain or fragment)
chain: MSSVQLSRGDFHSIFTNKQRYDNPTGGVYQVYNTRKSDGANSNRKNLIMISDGIYHMKALLRNQAASKFQSMELQRGDIIRVIIAEPAIVRERKKYVLLVDDFELVQSRADMVNQTSTFLDNYFSEHPNETLKDEDITDSGNVANQTNASNAGVPDMLHSNSNLNANERKFANENPNSQKTRPIFAIEQLSPYQNVWTIKARVSYKGEIKTWHNQRGDGKLFNVNFLDTSGEIRATAFNDFATKFNEILQEGKVYYVSKAKLQPAKPQFTNLTHPYELNLDRDTVIEECFDESNVPKTHFNFIKLDAIQNQEVNSNVDVLGIIQTINPHFELTSRAGKKFDRRDITIVDDSGFSISVGLWNQQALDFNLPEGSVAAIKGVRVTDFGGKSLSMGFSSTLIPNPEIPEAYALKGWYDSKGRNANFITL
modifications: 4-azidophenylalanine (4AZP) in DBD-A carrying the MB543 fluorophore; position not given
Consider B3, for which, in data set [6], the Kd was determined as 33.9 nM.

As to B4, the binding result in [7] is given as “binds”. The Kd in data set [8] was 61.1 nM.

For TTTTTTTTTTTTTTTTTTTTTTTTTTTTTTTTTTTTTTTT (ssDNA) [5'-Cy3-(dT)40], the binding result in [9] and in data set [10] was “binds” throughout.

As for TTTTTTTTTTTTTTTTTTTTTTTTTTTTTTTTTTTTTTTT (ssDNA) [3'-Cy3-(dT)40], the binding result in data set [11] and in [12] was “binds” each time.

With TTTTTTTTTTTTTTTTTTTTTTTTT (ssDNA) [5'-FAM-(dT)25], the binding result in data set [13] and in data set [14] was “binds” in each case.

As for TTTTTTTTTTTTTTTTTTTTTTTTTTTTTT (ssDNA) [5'-Cy5-(dT)30], the values for the Kd in data set [15] and in data set [16] were 5 ± 0.7 nM and 5.7 ± 1.2 nM, respectively.

(Values after publication PMC9440123, “Rtt105 regulates RPA function by configurationally stapling the flexible domains” (Nature Communications, 2022).)
